Experiment [1] concerns the target HERC5 HECT domain (UniProt Q9UII4). Nature of the experiment: SEC. On the technique in general: SEC sorts molecules by how far they enter the pores of the column.
For experiment [2] the target is unchanged. Nature of the experiment: SAXS.

HERC5 HECT domain, sequence (Q9UII4 702-1024): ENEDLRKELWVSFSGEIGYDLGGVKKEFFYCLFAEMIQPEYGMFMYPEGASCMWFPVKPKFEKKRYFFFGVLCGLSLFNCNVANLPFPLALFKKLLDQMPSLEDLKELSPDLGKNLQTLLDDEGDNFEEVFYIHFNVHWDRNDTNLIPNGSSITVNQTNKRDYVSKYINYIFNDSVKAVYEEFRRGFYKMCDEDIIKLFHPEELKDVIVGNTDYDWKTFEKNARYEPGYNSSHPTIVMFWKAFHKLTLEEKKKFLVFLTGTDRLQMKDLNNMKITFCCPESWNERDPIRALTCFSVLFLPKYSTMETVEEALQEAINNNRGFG

A word on the stoichiometry N: it is the number of molecules, sites or subunits per partner or assembly. Turning to “HERC5 HECT domain (from UniProt Q9UII4 702-1024) (domain or fragment)”, the stoichiometry N with HERC5 HECT domain [1] and in the experiment with HERC5 HECT domain [2] was 3 throughout.

For the origin of these results see article doi:10.1101/2025.03.22.644726.
